Data taken from US20130236458A1 (AbbVie / Abbott, published 2013).

T1: Recombinant Human IL-17 (human, UniProt Q16552 20-155, limits assumed)
T1 construct: bought reagent; also called IL-17A
T1 sequence (looked up): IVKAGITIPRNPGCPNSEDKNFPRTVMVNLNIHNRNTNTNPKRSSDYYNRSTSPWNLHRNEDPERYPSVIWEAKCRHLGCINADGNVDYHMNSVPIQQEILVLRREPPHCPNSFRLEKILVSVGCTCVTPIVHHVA

B1: DVD2191 (bispecific antibody)
VH: EVQLVQSGAEVKKPGSSVKVSCKASGGSFGGYGIGWVRQAPGQGLEWMGGITPFFGFADYAQKFQGRVTITADESTTTAYMELSGLTSDDTAVYYCARDPNEFWNGYYSTHDFDSWGQGTTVTVSSASTKGPEVQLVQSGAEVKKPGASVKVSCKASGYTFTSYWMHWVRQAPGQGLEWIGNINPKGGSNIYNEKFQGRVTMTRDTSISTAYMELSRLRSDDTAVYYCARLDYFGDSFDLWGQGTTVTVSS
VL: EIVLTQSPDFQSVTPKEKVTITCRASQDIGSELHWYQQKPDQPPKLLIKYASHSTSGVPSRFSGSGSGTDFTLTINGLEAEDAGTYYCHQTDSLPYTFGPGTKVDIKRTVAAPDIQMTQSPSSLSASVGDRVTITCRASQGIRNYLNWYQQKPGKAPKLLIYYASNLEVGVPSRFSGSGSGTDYTLTISSLQPEDFATYYCQQDNRFPYTFGGGTKVEIKR
notes: DVD-Ig; also called DVD2191H; DVD2191L
B2: DVD2189 (bispecific antibody)
VH: EVQLVQSGAEVKKPGSSVKVSCKASGYTFTDYEIHWVRQAPGQGLEWMGVNDPESGGTFYNQKFDGRVTLTADESTSTAYMELSSLRSEDTAVYYCTRYSKWDSFDGMDYWGQGTTVTVSSASTKGPSVFPLAPEVQLVQSGAEVKKPGASVKVSCKASGYTFTSYWMHWVRQAPGQGLEWIGNINPKGGSNIYNEKFQGRVTMTRDTSISTAYMELSRLRSDDTAVYYCARLDYFGDSFDLWGQGTTVTVSS
VL: DIQMTQSPSSLSASVGDRVTITCRASSGIISYIDWFQQKPGKAPKRLIYATFDLASGVPSRFSGSGSGTDYTLTISSLQPEDFATYYCRQVGSYPETFGQGTKLEIKRTVAAPDIQMTQSPSSLSASVGDRVTITCRASQGIRNYLNWYQQKPGKAPKLLIYYASNLEVGVPSRFSGSGSGTDYTLTISSLQPEDFATYYCQQDNRFPYTFGGGTKVEIKR
notes: DVD-Ig; also called DVD2189H; DVD2189L
B3: DVD2190 (bispecific antibody)
VH: EVQLVQSGAEVKKPGASVKVSCKASGYTFTSYWMHWVRQAPGQGLEWIGNINPKGGSNIYNEKFQGRVTMTRDTSISTAYMELSRLRSDDTAVYYCARLDYFGDSFDLWGQGTTVTVSSASTKGPEVQLVQSGAEVKKPGSSVKVSCKASGGSFGGYGIGWVRQAPGQGLEWMGGITPFFGFADYAQKFQGRVTITADESTTTAYMELSGLTSDDTAVYYCARDPNEFWNGYYSTHDFDSWGQGTTVTVSS
VL: DIQMTQSPSSLSASVGDRVTITCRASQGIRNYLNWYQQKPGKAPKLLIYYASNLEVGVPSRFSGSGSGTDYTLTISSLQPEDFATYYCQQDNRFPYTFGGGTKVEIKRTVAAPEIVLTQSPDFQSVTPKEKVTITCRASQDIGSELHWYQQKPDQPPKLLIKYASHSTSGVPSRFSGSGSGTDFTLTINGLEAEDAGTYYCHQTDSLPYTFGPGTKVDIKR
notes: DVD-Ig; also called DVD2190H; DVD2190L
B4: DVD2192 (bispecific antibody)
VH: B3 VH
VL: DIQMTQSPSSLSASVGDRVTITCRASQGIRNYLNWYQQKPGKAPKLLIYYASNLEVGVPSRFSGSGSGTDYTLTISSLQPEDFATYYCQQDNRFPYTFGGGTKVEIKRTVAAPSVFIFPPEIVLTQSPDFQSVTPKEKVTITCRASQDIGSELHWYQQKPDQPPKLLIKYASHSTSGVPSRFSGSGSGTDFTLTINGLEAEDAGTYYCHQTDSLPYTFGPGTKVDIKR
notes: DVD-Ig; also called DVD2192H; DVD2192L
B5: DVD2187 (bispecific antibody)
VH: EVQLVQSGAEVKKPGSSVKVSCKASGYTFTDYEIHWVRQAPGQGLEWMGVNDPESGGTFYNQKFDGRVTLTADESTSTAYMELSSLRSEDTAVYYCTRYSKWDSFDGMDYWGQGTTVTVSSASTKGPEVQLVQSGAEVKKPGASVKVSCKASGYTFTSYWMHWVRQAPGQGLEWIGNINPKGGSNIYNEKFQGRVTMTRDTSISTAYMELSRLRSDDTAVYYCARLDYFGDSFDLWGQGTTVTVSS
VL: DIQMTQSPSSLSASVGDRVTITCRASSGIISYIDWFQQKPGKAPKRLIYATFDLASGVPSRFSGSGSGTDYTLTISSLQPEDFATYYCRQVGSYPETFGQGTKLEIKRTVAAPSVFIFPPDIQMTQSPSSLSASVGDRVTITCRASQGIRNYLNWYQQKPGKAPKLLIYYASNLEVGVPSRFSGSGSGTDYTLTISSLQPEDFATYYCQQDNRFPYTFGGGTKVEIKR
notes: DVD-Ig; also called DVD2187H; DVD2187L

Target: T2, Recombinant Human IL-13 (human, UniProt P35225 35-146, limits assumed)
T2 construct: bought reagent
Test: SPR (Biacore)
How it was run: (§1)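 Antibodies or DVD-Ig captured on anti-mouse IgG (Fcγ) CM5 surface; antigen injected at 10–200 nM in HBS-EP, pH 7.4, 25 °C, 25 µL/min. kon and koff from global 1:1 Langmuir fit; KD = koff/kon.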

T2 sequence (P35225 35-146 limits assumed): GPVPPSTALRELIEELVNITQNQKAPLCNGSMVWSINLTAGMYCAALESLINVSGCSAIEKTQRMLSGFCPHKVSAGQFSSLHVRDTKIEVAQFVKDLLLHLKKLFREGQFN

Binder	Kd [pM]	koff [s⁻¹]	kon [M⁻¹ s⁻¹]
B1	170	4.4e-05	260000
B2	94	3.9e-05	410000
B3	21	5.7e-05	2.6e+06
B4	35	5.1e-05	1.5e+06
B5	72	2.1e-05	290000

Target: T1, Recombinant Human IL-17
Test: SPR (Biacore)
How it was run: as §1

Binder	Kd [pM]	koff [s⁻¹]	kon [M⁻¹ s⁻¹]
B1	4.6	1.2e-05	2.5e+06
B2	< 0.4	< 1e-06	2.5e+06
B3	38	3.4e-06	89000
B4	< 3.8	< 1e-06	260000
B5	< 0.38	< 1e-06	2.6e+06

Target: T2, Recombinant Human IL-13
Test: cell-based or functional assay

Binder	C-Terminal VD IL13 Neutralization Assay IC50 [pM]	N-Terminal VD IL13 Neutralization Assay IC50 [pM]
B1	165	
B2	172	
B3		87
B4		56
B5	811	

Target: T1, Recombinant Human IL-17
Test: cell-based or functional assay

Binder	N-Terminal VD IL17 Neutralization Assay IC50 [pM]	C-Terminal VD IL17 Neutralization Assay IC50 [pM]
B1	13	
B2	1.7	
B3		61
B4		15
B5	1.6	
